From patent publication US20260193326A1 (published 2026)

What was measured:
Assay in all cases: SPR, AAV on CM5 chip;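 note: surface plasmon resonance with AAV amine-coupled to the chip as ligand, nanobodies injected as analyte over a concentration series, rate constants and affinity fitted from binding curves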
AAV8 = molecular target: T1, AAV8
T1 construct: also called adeno-associated virus serotype 8
Procedure: (§1) AAV was amine-coupled to a CM5 sensor chip at a density of 500-800 response units (RU). Nanobodies were injected at seven concentrations (1-100 nM) with a flow rate of 45 μL/min, and chip regeneration was performed using glycine-HCl (pH 1.5). Binding curves at different nanobody concentrations were used to calculate kinetic parameters (Kₐ, Kd, KD) (Table 2 and FIG. 2).

AAV5 = molecular target: T2, AAV5
T2 construct: also called adeno-associated virus serotype 5
Procedure: as §1

AAV2 = molecular target: T3, AAV2 (UniProt P03135 1-735)
T3 construct: also called adeno-associated virus serotype 2
Procedure: as §1

AAV9 = molecular target: T4, AAV9
T4 construct: also called adeno-associated virus serotype 9
Procedure: as §1

Binder | Kd (AAV8) [nM] | koff (AAV8) [s⁻¹] | kon (AAV8) [M⁻¹ s⁻¹] | Kd (AAV5) [nM] | koff (AAV5) [s⁻¹] | kon (AAV5) [M⁻¹ s⁻¹] | Kd (AAV2) [nM] | koff (AAV2) [s⁻¹] | kon (AAV2) [M⁻¹ s⁻¹] | Kd (AAV9) [nM] | koff (AAV9) [s⁻¹] | kon (AAV9) [M⁻¹ s⁻¹]
A4-032 (VHH) VHH: VQLQESGGGLVQPGGSLRLSCVASGSSFSINTMGWYRQAPGKQRELVATVTRDGSTNYANSVKGRFTISRDNAKNTVYLQMNSLRPEDTAVYYCHVDEVRQSSWTTSNLWGQGTQVTVSS | 12.8 | 0.00169 | 132000 | 6.7 | 0.0009 | 134000 | 2.53 | 0.0004 | 158000 | 16.4 | 0.00108 | 65900
A4-044 (VHH) VHH: VQLQESGGGLVQPGGSLRLSCAASGSSFSINTMGWYRQAPGKQRELVATVTRGGVTNYADSVKGRFTISRDNAKNTVYLQMNSLRPEDTAVYYCHVDEVRQSSWTTSNLWGQGTQVTVSS | 1.52 | 0.00024 | 158000 | 7.47 | 0.00137 | 183000 | 13.1 | 0.00069 | 52900 | 13.1 | 0.00188 | 143000
A4-048 (VHH) VHH: VQLQESGGGLVQPGGSLRLSCAASGSMFSINTMGWYRQAPGKQRELVATVTRGGNTNYAGSVKGRFTISRDNAKNTVYLQMNSLRPEDTAVYYCHVDEVRQSSWTTSNLWGQGTQVTVSS | 146 | 0.00031 | 2130 | 54.4 | 0.00051 | 9380 | 155 | 0.00137 | 8850 | 399 | 0.0013 | 3260
A4-034 (VHH) VHH: VQLQESGGGLVQPGGSLRLSCAASGRGFSINTMGWYRQAPGKQRELVAAVTRGGTTNYADSVKGRFTISRDNAKNTVYLQMNSLRPEDTAVYYCHVDEVRQSSWTTSNLWGQGTQVTVSS | 7.84 | 0.00047 | 59900 | 12.2 | 0.00021 | 17200 | 3.36 | 0.00066 | 196000 | 6.8 | 0.00129 | 190000
A4-038 (VHH) VHH: VQLQESGGGLVQPGGSLRLSCAASGSHFSINTMGWYRQAPGKQRELVATVTRGGSTNYANSVKGRFTISRDNAKNTVYLQMNSLRPEDTAVYYCHLDEVRQSSWTTSNLWGQGTQVTVSS | 69.5 | 0.0005 | 7190 | 1.57 | 0.00028 | 178000 | 0.704 | 0.00014 | 199000 | 7.29 | 0.0011 | 151000
A4-046 (VHH) VHH: VQLQESGGGLVQPGGSLRLSCAASGSRFSINTMGWYRQAPGKQRELVATVTRGGSTNYADSVKGRFTISRDNAKNTVYLQMNSLRPEDTAVYYCHVDEVRQSSWTTSNLWGQGTQVTVSS | 37.6 | 0.00455 | 121000 | 55.3 | 0.00933 | 169000 | 48.8 | 0.00725 | 148000 | 16.1 | 0.00269 | 167000
A4-039 (VHH) VHH: VQLQESGGGLVQPGGSLRLSCAASGSGFSINTMGWYRQAPGKWRELVATVTRGGSTNYAGSVKGRFTISRDNAKNTVYLQMNSLRPEDTAVYYCHIDEVRQSSWTTSNLWGQGTQVTVSS | 281 | 0.00177 | 6290 | 246 | 0.00182 | 7410 | 39.5 | 0.00015 | 3800 | 360 | 0.001 | 2780
